Data on one molecule can be found in patent US9957308B2, “Method for detecting bilirubin using a fluorescent protein” (RIKEN, priority 2013, dated 2018).

One series relates to Escherichia coli cells. Put plainly: Expression of recombinant UnaG protein in Escherichia coli, fluorescence observation. It counts as cell-based. Particulars: blue light, UV transilluminator. An excerpt: A DNA fragment including the sequence of full-length UnaG gene prepared above was ligated to the restriction enzyme sites, BamHI and EcoRI, of Escherichia coli expression vector […] (GE Healthcare) including a GST-tag sequence that can express the GST-fused protein in Escherichia coli and transformed into Escherichia coli strain DH5α for subcloning. Thus, a UnaG (apo form) expression vector (pGEX-2T-UnaG) for Escherichia coli was constructed.
The constructed expression vector (pGEX-2T-UnaG) was transformed into Escherichia coli strain BL21 (DE3). The transformant was cultured on a plate of an LB solid medium to obtain colonies. The resulting colonies were inoculated in 40 mL of an LB liquid medium and were cultured overnight at 37° C. Here, a glycerol stock of the resulting Escherichia coli solution was produced, and this glycerol stock was used as the recombinant (vector) for Escherichia coli expression in the experiments described below. The LB medium was scaled up to 400 mL using the culture solution, followed by culturing at 37° C. for 1 hr (A600≈1.0). […]
FIG. 1 includes diagrams showing expression of recombinant UnaG protein in Escherichia coli and mammalian cells. […] The diagram (c) includes a differential interference image and a fluorescence image by observation of mammalian cell HEK293T expressing recombinant UnaG protein under a fluorescence microscope. […]

Series [1] can be described thus: Measurement of fluorescence spectrum, absorption spectrum, quantum yield and fluorescence lifetime. The class given is physicochemical. As for the experimental part: In order to analyze the fluorescent properties of UnaG protein, the fluorescence spectrum, absorption spectrum, and quantum yield were measured. The excitation spectrum and the fluorescence spectrum were measured with a spectrophotofluorometer, RF-5300PC (Shimadzu Corporation), at an excitation wavelength of 475 nm and a fluorescence wavelength of 550 nm. The absorption spectrum was measured with a spectrophotometer, U-2900 (Hitachi High-Technologies Corporation). The quantum yield was measured with an absolute quantum yield measurement system, Quantaurus-QY (Hamamatsu Photonics K.K.) at excitation wavelengths of 470 nm and 480 nm. A known fluorescent protein, EGFP, was similarly measured, and the values were compared to those of UnaG protein.
In order to analyze the fluorescent properties of R82EK84E mutant, the fluorescence spectrum, absorption spectrum, and quantum yield were measured. The measurement was performed by the same method as that described in the above-described paragraph 3. The fluorescence lifetime was measured with a small-sized fluorescence lifetime measurement system, Quantaurus-Tau (Hamamatsu Photonics K.K.) and was compared to that of wild-type UnaG protein.
The fluorescence spectrum, absorption spectrum, and quantum yield (excitation wavelength: 470 nm) were measured for analyzing the fluorescent properties of holo A12ES80N mutant protein. The measurement was performed by the same method as that described in paragraph 3, above. The fluorescent properties were compared to those of wild-type UnaG protein.

Series [2] in a line: Evaluation of aggregability of protein by dynamic light scattering particle diameter. Particulars: wild-type 10 mg/mL, R82EK84E mutant 8.5 mg/mL. It counts as physicochemical. On the procedure:
Protein solutions (each 20 μL) of wild-type UnaG protein (10 mg/mL) and R82EK84E mutated UnaG protein (8.5 mg/mL) were each supplied to Microtrac particle size analyzer MT3000II (Nikkiso Co., Ltd.), and the particle diameters were measured by a dynamic light scattering. The aggregability was evaluated by plotting frequency against particle diameter.

The target of a further series is T1, apo UnaG protein (Anguilla japonica, UniProt P0DM59).
T1 construct: GST (N, cleaved yes); made in house; host or cells: Escherichia coli BL21 (DE3)
Put plainly: Reconstruction of apo UnaG protein using bilirubin or bilirubin analog, fluorescence intensity. It counts as binding, Japanese eel (Anguilla japonica). Particulars: 0.5 μM apo UnaG, ligand 0.125-2.0 μM, 30 min room temperature, excitation 497 nm / emission 527 nm. On the procedure: Bilirubin or a bilirubin analog, biliverdin (Toronto Research Chemicals), urobilin (MP Biomedicals), or ditaurobilirubin (Frontier Scientific), was diluted with PBS such that the final concentration was 0.125 μM, 0.25 μM, 0.5 μM, 1.0 μM, or 2.0 μM and was mixed with 0.5 μM apo UnaG protein. The mixture was left to stand at room temperature for 30 min. Subsequently, 200 μL of the mixture was added to each well of a 96 well microplate (Greiner Bio-One) and was subjected to measurement of the fluorescence intensity at a wavelength of 527 nm with excitation light having a wavelength of 497 nm using EnSpire multi-mode plate reader (PerkinElmer Co., Ltd.).

The mark [3] stands for this setting: Table 3, wild-type vs R82EK84E mutant.
Setting [4] is: Table 3, wild-type vs R82EK84E mutant, holo form reconstructed with bilirubin.
Setting [5] is: Table 4, wild-type vs holo A12ES80N mutant.

B1: UnaG: fluorescent polypeptide including the amino acid sequence of SEQ ID NO: 1, originally isolated from Japanese eel; fluoresces in the presence of bilirubin (protein, listed as Anguilla japonica)
chain: MVEKFVGTWKIADSHNFGEYLKAIGAPKELSDGGDATTPTLYISQKDGDKMTVKIENGPPTFLDTQVKFKLGEEFDEFPSDRRKGVKSVVNLVGEKLVYVQKWDGKETTYVREIKDGKLVVTLTMGDVVAVRSYRRATE
For the molecule B1, the “fluorescence of expressed protein in cells” value in the series on Escherichia coli cells is given as “did not emit fluorescence”. Further, the Maximum excitation wavelength came out at 498 nm in series [1] (Table 2, UnaG compared to EGFP); 498 nm in series [1] (setting [4]); 499 nm in series [1] (setting [5]). Moreover, the Maximum fluorescence wavelength in series [1] (Table 2, UnaG compared to EGFP) was determined as 527 nm; in series [1] (setting [4]) it was 527 nm; in series [1] (setting [5]), 527 nm. In addition, the Brightness in series [1] (Table 2, [(Molar extinction coefficient) × (Quantum yield)]/1,000) was 39.4. In addition, the Molar extinction coefficient is 77,300 (498 nm) M^−1 cm^−1 in series [1] (Table 2, at the maximum excitation wavelength (498 nm UnaG, 490 nm EGFP)); 56,992 M^−1 cm^−1 in series [1] (setting [3]); 52,687 M^−1 cm^−1 in series [1] (setting [5]). The Quantum yield in series [1] (Table 2, excitation wavelengths 470 nm and 480 nm) was determined as 51%; in series [1] (setting [3]) it was 51%; in series [1] (Table 4, excitation wavelength 470 nm) it was 53.2%. Also, in series [1] (Table 3, wild-type vs R82EK84E mutant, Quantaurus-Tau), the “Fluorescence lifetime (τ1/ns)” value was determined as 2.2 ns. In series [1] (main fluorescent properties of UnaG), this molecule came in with a Fluorescence lifetime of 2.2 nanosecond. The “particle diameter distribution (peaks)” value in series [2] is recorded as “two peaks of different particle diameter distribution ranges”. Also, the “fluorescence of UnaG on addition of ligand (specificity)” value with apo UnaG protein is “specific to bilirubin”.
